Reference: patent publication US20190022244A1 (BIOASIS TECHNOLOGIES, published 2019)

Target: T1, human N-acetylated-alpha-linked acidic dipeptidase-like protein 2 (NAALADL2) (human, UniProt Q58DX5 1-795)
T1 construct: also called human NAALADL2 receptor; NAALADL2 polypeptide
T1 sequence: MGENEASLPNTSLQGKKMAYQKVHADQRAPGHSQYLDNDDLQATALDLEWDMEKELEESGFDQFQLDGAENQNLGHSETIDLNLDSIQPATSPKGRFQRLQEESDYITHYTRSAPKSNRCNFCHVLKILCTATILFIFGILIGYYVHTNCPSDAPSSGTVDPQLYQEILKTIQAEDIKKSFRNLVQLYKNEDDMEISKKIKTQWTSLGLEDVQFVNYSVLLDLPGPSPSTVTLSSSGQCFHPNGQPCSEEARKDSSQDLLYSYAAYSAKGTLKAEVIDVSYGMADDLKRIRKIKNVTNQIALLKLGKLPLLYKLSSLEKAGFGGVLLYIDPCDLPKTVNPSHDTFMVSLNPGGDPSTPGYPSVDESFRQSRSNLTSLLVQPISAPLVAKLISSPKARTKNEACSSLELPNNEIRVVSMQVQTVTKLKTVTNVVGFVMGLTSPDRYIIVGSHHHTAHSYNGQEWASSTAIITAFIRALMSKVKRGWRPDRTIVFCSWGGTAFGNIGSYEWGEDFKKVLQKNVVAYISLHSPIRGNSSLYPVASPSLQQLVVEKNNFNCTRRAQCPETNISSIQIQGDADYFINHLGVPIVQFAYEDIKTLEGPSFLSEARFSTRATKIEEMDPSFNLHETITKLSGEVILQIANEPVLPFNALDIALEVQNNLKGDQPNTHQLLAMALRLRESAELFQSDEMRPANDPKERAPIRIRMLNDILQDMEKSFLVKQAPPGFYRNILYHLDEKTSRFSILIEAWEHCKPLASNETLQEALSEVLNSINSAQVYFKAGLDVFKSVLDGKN
Test: EGS cross-linking on U87 cells, then reciprocal immunoprecipitation (anti-MTf L235 or anti-NAALADL2 N18+L18) and immunoblot with the complementary antibody
Procedure: Cells were pulsed with 1 μl of 7.1 mg/ml a human melanotransferrin (MTf) peptide ([…]; SEQ ID NO:2) and 4 μl of NTA-Fe, and shaken gently at 4° C. for 20 minutes to allow binding. The supernatant was discarded and the cells were washed 2× with 5 ml of PBS at 4° C. Cross-linker solution (6 ml of 3.7 mM EGS; Thermo Scientific, Cat #87786) was added to each flask, and the cells were shaken gently at 4° C. for 2 hours.
The supernatant was discarded, and 2 ml of RIPA buffer with 1X HALT protease inhibitor cocktail was added to lyse the cells and quench the cross-linker. The cells were shaken vigorously at room temperature for 5 minutes, and a cell scraper was used to lyse and completely detach the cell lysate from the plate.

B1: human melanotransferrin (MTf) peptide (DSSHAFTLDELR; SEQ ID NO:2) (peptide)
peptide: DSSHAFTLDELR
notes: 12-residue fragment of human melanotransferrin (p97); It was pulsed onto U87 cells together with NTA-Fe; also called human MTf peptide; human MTf polypeptide
B1: binds.
